# Measured values as given in article PMC3269026 (Frontiers in Microbiology, 2012).
# Biological target: T1, translocated intimin receptor (Tir) of EPEC, delivered to HEp-2 cells (EPEC (strain JPN15.96), UniProt B7UM99 1-550)
# T1 sequence: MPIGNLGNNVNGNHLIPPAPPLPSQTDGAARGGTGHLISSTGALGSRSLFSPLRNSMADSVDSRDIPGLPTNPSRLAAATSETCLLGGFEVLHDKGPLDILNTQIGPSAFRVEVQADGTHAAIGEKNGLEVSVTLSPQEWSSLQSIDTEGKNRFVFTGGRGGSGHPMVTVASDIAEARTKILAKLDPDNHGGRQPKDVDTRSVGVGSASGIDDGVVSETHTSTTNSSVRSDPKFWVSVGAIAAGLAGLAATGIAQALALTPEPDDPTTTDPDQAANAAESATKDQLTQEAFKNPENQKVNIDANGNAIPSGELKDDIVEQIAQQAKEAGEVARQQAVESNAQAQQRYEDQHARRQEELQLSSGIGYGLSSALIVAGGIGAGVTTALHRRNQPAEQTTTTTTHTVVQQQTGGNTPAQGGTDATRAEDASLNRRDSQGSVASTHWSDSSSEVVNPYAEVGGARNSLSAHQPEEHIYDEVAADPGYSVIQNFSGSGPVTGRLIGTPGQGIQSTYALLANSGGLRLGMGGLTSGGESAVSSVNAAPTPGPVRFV
# Assay: bacterial adherence to Tir-primed cells
binder,measurement,value
EHEC intimin (natural protein) NGENYFKLGSDSKLLTHDSYQNRLFYTLKTGETVADLSKSQDINLSTIWSLNKHLYSSESEMMKAAPGQQIILPLKKLPFEYSALPLLGSAPLVAAGGVAGHTNKLTKMSPDVTKSNMTDDKALNYAAQQAASLGSQLQSRSLNGDYAKDTALGIAGNQASSQLQAWLQHYGTAEVNLQSGNNFDGSSLDFLLPFYDSEKMLAFGQVGARYIDSRFTANLGAGQRFFLPANMLGYNVFIDQDFSGDNTRLGIGGEYWRDYFKSSVNGYFRMSGWHESYNKKDYDERPANGFDIRFNGYLPSYPALGAKLIYEQYYGDNVALFNSDKLQSNPGAATVGVNYTPIPLVTMGIDYRHGTGNENDLLYSMQFRYQFDKSWSQQIEPQYVNELRTLSGSRYDLVQRNNNIILEYKKQDILSLNIPHDINGTEHSTQKIQLIVKSKYGLDRIVWDDSALRSQGGQIQHSGSQSAQDYQAILPAYVQGGSNIYKVTARAYDRNGNSSNNVQLTITVLSNGQVVDQVGVTDFTADKTSAKADNADTITYTATVKKNGVAQANVPVSFNIVSGTATLGANSAKTDANGKATVTLKSSTPGQVVVSAKTAEMTSALNASAVIFFDQTKASITEIKADKTTAVANGKDAIKYTVKVMKNGQPVNNQSVTFSTNFGMFNGKSQTQATTGNDGRATITLTSSSAGKATVSATVSDGAEVKATEVTFFDELKIDNKVDIIGNNVRGELPNIWLQYGQFKLKASGGDGTYSWYSENTSIATVDASGKVTLNGKGSVVIKATSGDKQTVSYTIKAPSYMIKVDKQAYYADAMSICKNLLPSTQTVLSDIYDSWGAANKYSHYSSMNSITAWIKQTSSEQRSGVSSTYNLITQNPLPGVNVNTPNVYAVCVE,fold binding over C. rodentiumΔeae,~20 fold
